# From patent publication US20070010432A1, “Heat shock protein 90 activator” (priority 2002, published 2007)
# B1: C terminal domain of Aha1: truncated Aha1 polypeptide consisting of the remainder of the Aha1 sequence (protein)
# chain: PESQVKSNYTRGNQKSSFTEIKDSASKPKKNALPSSTSTSAPVSSTNKVPQNGSGNSTSIYLEPTFNVPSSELYETFLDKQRILAWTRSAQFFNSGPKLETKEKFELFGGNVISELVSCEKDKKLVFHWKLKDWSAPFNSTIEMTFHESQEFHETKLQVKWTGIPVGEEDRVRANFEEYYVRSIKLTFGFGAVL
# B2: N terminal domain of Aha1: truncated Aha1 polypeptide of 162 aa from the N terminal MVVNNP to GNDIQV (protein)
# chain: MVVNNPNNWHWVDKNCIGWAKEYFKQKLVGVEAGSVKDKKYAKIKSVSSIEGDCEVNQRKGKVISLFDLKITVLIEGHVDSKDGSALPFEGSINVPEVAFDSEASSYQFDISIFKETSELSEAKPLIRSELLPKLRQIFQQFGKDLLATHGNDIQV
# Legend:
# [1] = target: T1, Yeast Hsp90 (Saccharomyces cerevisiae, UniProt P02829); assay: Malachite green colorimetric ATPase assay, yeast Hsp90; format: biochemical
# T1 construct: made in house; host or cells: E. coli
# T1 sequence (P02829 whole entry): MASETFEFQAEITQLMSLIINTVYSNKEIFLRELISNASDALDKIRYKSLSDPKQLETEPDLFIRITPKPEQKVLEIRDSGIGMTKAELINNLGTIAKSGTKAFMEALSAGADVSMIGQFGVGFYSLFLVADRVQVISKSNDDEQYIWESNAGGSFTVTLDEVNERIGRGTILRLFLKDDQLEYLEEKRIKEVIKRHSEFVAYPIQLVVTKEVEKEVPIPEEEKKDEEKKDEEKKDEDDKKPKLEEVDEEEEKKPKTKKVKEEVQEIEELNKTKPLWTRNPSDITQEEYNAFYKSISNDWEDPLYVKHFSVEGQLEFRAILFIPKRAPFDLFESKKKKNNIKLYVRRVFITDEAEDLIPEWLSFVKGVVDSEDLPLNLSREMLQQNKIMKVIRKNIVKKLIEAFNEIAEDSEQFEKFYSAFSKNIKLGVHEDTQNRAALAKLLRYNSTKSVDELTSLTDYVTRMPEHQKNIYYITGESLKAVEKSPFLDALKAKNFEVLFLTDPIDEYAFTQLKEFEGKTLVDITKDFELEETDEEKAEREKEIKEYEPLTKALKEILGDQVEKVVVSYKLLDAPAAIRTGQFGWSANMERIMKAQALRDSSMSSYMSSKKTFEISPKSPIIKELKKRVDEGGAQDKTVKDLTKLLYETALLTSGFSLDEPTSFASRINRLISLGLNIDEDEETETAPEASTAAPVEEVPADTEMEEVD
# Text: The activity of enzymes that release inorganic phosphate can be measured using the reaction of the cationic dye, malachite green, with a phosphomolybdate complex to generate a blue-green colour with an absorbance maximum at 610 nm (Cogan, E. B. et al (1999) Anal. Biochem. 271, 29-35; Baykov, A. A. et al (1988) Anal. Biochem. 171, 266-270; Harder, K. W. et al (1994) Biochem. J. 298, 395-401; Maehama, T. et al (2000) Anal. Biochem. 279, 248-250) as described above.
# Chemicals are of the highest purity commercially available and all aqueous solutions are made up in AR water. • 1. For the full length Aha1, an assay buffer of 45 mM Tris-HCl pH 7.5, 9 mM KCl, 3 mM MgCl may be used. For the C-and N-terminal domain of Aha1 or the Hch1 homologue, an 20 mM Tris-HCl pH 7.5, 4 mM KCl, 1.2 mM MgCl. An assay buffer of 100 mM Tris-HCl, pH 7.4, 20 mM KCl, 6 mM MgCl2 may also be used. Stored at 4° C. • 2. 0.0812% (w/v) malachite green (Sigma M 9636). Stored at room temperature. • 3. […]
# [2] = target: Hsp90 (species not stated; FIGS. 4 to 6)
# [3] = target: Human hsp90 beta protein (human) (UniProt P08238)
# [4] = target: T2, Human Hsp90 (Homo sapiens, UniProt P08238); assay: Stimulation of human HSP90 ATPase activity by Aha1; format: biochemical
# T2 construct: made in house; host or cells: E. coli BL21 (DE3) pLysS (stated for Aha1 only)
# T2 sequence (P08238 whole entry): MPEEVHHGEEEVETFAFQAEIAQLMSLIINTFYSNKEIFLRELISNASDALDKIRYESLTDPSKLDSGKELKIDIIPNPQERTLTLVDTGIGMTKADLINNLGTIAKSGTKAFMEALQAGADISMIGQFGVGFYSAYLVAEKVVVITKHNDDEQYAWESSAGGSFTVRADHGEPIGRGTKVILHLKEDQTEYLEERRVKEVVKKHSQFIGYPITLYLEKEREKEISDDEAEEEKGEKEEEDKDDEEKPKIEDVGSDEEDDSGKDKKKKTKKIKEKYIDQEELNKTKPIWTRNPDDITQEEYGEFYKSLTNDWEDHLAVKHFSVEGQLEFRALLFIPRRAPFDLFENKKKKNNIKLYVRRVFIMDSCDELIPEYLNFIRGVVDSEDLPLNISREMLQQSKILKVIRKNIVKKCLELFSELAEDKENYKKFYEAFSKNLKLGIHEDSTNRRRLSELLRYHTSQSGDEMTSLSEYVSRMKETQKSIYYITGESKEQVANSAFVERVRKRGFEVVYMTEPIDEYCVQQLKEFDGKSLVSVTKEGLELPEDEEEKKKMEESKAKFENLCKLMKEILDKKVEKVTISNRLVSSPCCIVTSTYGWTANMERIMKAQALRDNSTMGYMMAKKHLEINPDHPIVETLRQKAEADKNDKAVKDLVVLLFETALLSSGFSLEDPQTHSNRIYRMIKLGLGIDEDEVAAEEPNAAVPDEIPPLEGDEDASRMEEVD
# Protocol: Each value is the mean±Sd of n=4 ATP at 0.6 mM.
# Each point is the mean±SD of n=4 ATP at 0.6 mM.
# Chemicals are of the highest purity commercially available and all aqueous solutions are made up in AR water. • 1. For the full length Aha1, an assay buffer of 45 mM Tris-HCl pH 7.5, 9 mM KCl, 3 mM MgCl may be used. For the C-and N-terminal domain of Aha1 or the Hch1 homologue, an 20 mM Tris-HCl pH 7.5, 4 mM KCl, 1.2 mM MgCl. An assay buffer of 100 mM Tris-HCl, pH 7.4, 20 mM KCl, 6 mM MgCl2 may also be used. Stored at 4° C. • 2. 0.0812% (w/v) malachite green (Sigma M 9636). Stored at room temperature. • 3. 2.32% (w/v) polyvinyl alcohol USP (Sigma P 1097). Stored at room temperature. The polyvinyl alcohol dissolves in boiling water with difficulty and stirring for 2-3 h is required • 4. 5.72% (w/v) ammonium molybdate in 6M hydrochloric acid. Stored at room temperature. • 5. […] Stored at room temperature. • 6. ATP, disodium salt, special quality (Boehringer Mannheim 519979). Stored at 4° C. • 7. […]
# Initially, the reagent was a dark brown colour, but after standing at room temperature for about 2 h, this became a golden yellow colour and was ready for use. […]
# To stop the incubation, 80 μl of the malachite green reagent was added to each well and the plate shaken again. […] The absorbance at 620 nm was measured using a suitable plate reader (e.g. Victor^2, PerkinElmer Life Sciences). […]
# [5] = target: T3, Hsp90 (Saccharomyces cerevisiae, UniProt P02829); assay: Effect of Aha1, Aha1 domains or Hch1 concentration on geldanamycin dependent ATPase activity of Hsp90; format: biochemical; details: for Effect on Hsp90 ATPase activity (in words): FIG. 5 and 6, 20 mM Tris pH 7.5, 4 mM KCl, 1.2 mM MgCl2
# T3 construct: made in house; host or cells: E. coli (if the yeast protein of the reagent list)
# T3 sequence (P02829 whole entry, the tested form may be a part): as the sequence (P02829 whole entry) above
# Protocol: Half activation is shown to be at […] Aha1. 0.2 μM Aha1 was used in a buffer consisting of 45 mM Tris pH 7.5, 9 mM KCl, 3 mM MgCl2.
# 2 μM Aha1 was used in a buffer consisting of 20 mM Tris pH 7.5, 4 mM KCl, 1.2 mM MgCl2.
# Hch1 and truncated Aha1 polypeptides corresponding to the N and C terminal domains of full-length Aha1 were expressed and purified as described above. The N terminal domain polypeptide (nAha1) consisted of 162 aa from the N terminal MVVNNP to GNDIQV. The C terminal domain polypeptide (cAha1) consisted of the remainder of the Aha1 sequence.
# Chemicals are of the highest purity commercially available and all aqueous solutions are made up in AR water. • 1. For the full length Aha1, an assay buffer of 45 mM Tris-HCl pH 7.5, 9 mM KCl, 3 mM MgCl may be used. For the C-and N-terminal domain of Aha1 or the Hch1 homologue, an 20 mM Tris-HCl pH 7.5, 4 mM KCl, 1.2 mM MgCl. An assay buffer of 100 mM Tris-HCl, pH 7.4, 20 mM KCl, 6 mM MgCl2 may also be used. Stored at 4° C. • 2. 0.0812% (w/v) malachite green (Sigma M 9636). Stored at room temperature. • 3. 2.32% (w/v) polyvinyl alcohol USP (Sigma P 1097). Stored at room temperature. The polyvinyl alcohol dissolves in boiling water with difficulty and stirring for 2-3 h is required • 4. 5.72% (w/v) ammonium molybdate in 6M hydrochloric acid. Stored at room temperature. • 5. […] Stored at room temperature. • 6. ATP, disodium salt, special quality (Boehringer Mannheim 519979). Stored at 4° C. • 7. E. coli expressed yeast HSP90 protein, purified >95% (10) and stored at −80° C. as 10 μl aliquots containing 0.5 mg of protein. Assay Protocol
molecule,measurement,setting,value
C=CCNC1=C2C[C@@H](C)C[C@H](OC)[C@H](O)[C@@H](C)/C=C(\C)[C@H](OC(N)=O)[C@@H](OC)/C=C\C=C(/C)C(=O)NC(=CC1=O)C2=O [17AAG],Inhibition of yeast HSP90 ATPase activity (in words),[1],potent inhibitors
"C[C@@H]1C[C@H]2O[C@@H]2/C=C\C=C\C(=O)Cc2c(Cl)c(O)cc(O)c2C(=O)O1 [Radicicol, radicicol]",Inhibition of yeast HSP90 ATPase activity (in words),[1],potent inhibitors
"Aha1 (YDR214W), full length (from UniProt Q12449)",Half maximal activation of Hsp90 (geldanamycin dependent ATPase activity),[2],< 1 µM
same,ATPase activity of human Hsp90 (malachite green assay of inorganic phosphate),[3],2 fold
Aha1: Aha1 (YDR214W) protein expressed in E. coli; co-activator stimulating Hsp90 ATPase activity,Increase of the activity of human Hsp90 in the presence of Aha1,[4],approximately 2 fold
same,Effect on ATPase activity of increasing concentrations of human HSP90 (in words),"[4]; FIG. 1, ATP 0.6 mM",significantly increase
same,EC50,"[5]; FIG. 4, text of results, read-out: Aha1 concentration for half maximal activation of Hsp90",< 1000 nM
"Hch1: homologue of Aha1, expressed and purified like Aha1",Effect on Hsp90 ATPase activity (in words),[5],"activate Hsp90 ATPase activity, but to a lesser extent than the full length Aha1 polypeptide"
B1,Effect on Hsp90 ATPase activity (in words),[5],little or no effect
B2,Effect on Hsp90 ATPase activity (in words),[5],"activate Hsp90 ATPase activity, but to a lesser extent than the full length Aha1 polypeptide"
